From PMC11282955

Target: human angiotensin-converting enzyme 2 (hACE2) (UniProt Q9BYF1)
Assay: SPR
Details: parent: est. 1.5 nM; read off a plot

BA.2.86 spike receptor-binding domain (RBD) D450N
Kd: 0.52 nM

BA.2.86 spike receptor-binding domain (RBD) H445V
Kd: 0.46 nM

BA.2.86 spike receptor-binding domain (RBD) H505Y
Kd: 0.58 nM

BA.2.86 spike receptor-binding domain (RBD) K403R
Kd: 1 nM

BA.2.86 spike receptor-binding domain (RBD) K481N
Kd: 0.66 nM

BA.2.86 spike receptor-binding domain (RBD) K484A
Kd: 1.2 nM

BA.2.86 spike receptor-binding domain (RBD) L455F; F456L
Kd: 0.8 nM

BA.2.86 spike receptor-binding domain (RBD) L455S
Kd: 4.3 nM

BA.2.86 spike receptor-binding domain (RBD) N354Q
Kd: 1.6 nM

BA.2.86 spike receptor-binding domain (RBD) N417K
Kd: 0.62 nM

BA.2.86 spike receptor-binding domain (RBD) N417K; H505Y
Kd: 0.27 nM

BA.2.86 spike receptor-binding domain (RBD) N417K; H505Y; L455F; F456L
Kd: 0.53 nM

BA.2.86 spike receptor-binding domain (RBD) P486F
Kd: 0.39 nM

BA.2.86 spike receptor-binding domain (RBD) W452L
Kd: 0.58 nM

BA.2.86 spike receptor-binding domain (RBD) ins483V
Kd: 0.88 nM
